Bridges are numbered along the chain shown (N, C = ends). [ ]: non-standard residue; d: D form. Dab = NCC[C@H](N)C(=O)O

First the molecules themselves.
T1: Formyl-Peptide Receptor 1 (UniProt P21462 1-350, limits assumed)
T1 sequence (looked up): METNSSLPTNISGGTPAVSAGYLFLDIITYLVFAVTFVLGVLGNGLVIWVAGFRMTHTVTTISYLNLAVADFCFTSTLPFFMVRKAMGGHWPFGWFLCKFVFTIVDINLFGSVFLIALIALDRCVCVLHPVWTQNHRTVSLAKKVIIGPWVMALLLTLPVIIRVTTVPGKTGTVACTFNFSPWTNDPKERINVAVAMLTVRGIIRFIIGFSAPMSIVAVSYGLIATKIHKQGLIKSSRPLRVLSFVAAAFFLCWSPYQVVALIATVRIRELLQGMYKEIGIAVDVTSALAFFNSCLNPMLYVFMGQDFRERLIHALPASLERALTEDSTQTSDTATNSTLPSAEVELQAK

B1: cyclo(-Tyr-His-Ala-Cys-Trp-Gly-^DPro-Trp-Thr-Ile-Cys-Tyr-Glu-Lys-^DPro-Pro-) (peptide)
peptide: cyclo(YHACWG[dP]WTICYEK[dP]P)
modifications: disulfide 4-11
SMILES: CC[C@H](C)[C@@H]1NC(=O)[C@H]([C@@H](C)O)NC(=O)[C@H](Cc2c[nH]c3ccccc23)NC(=O)[C@H]2CCCN2C(=O)CNC(=O)[C@H](Cc2c[nH]c3ccccc23)NC(=O)[C@@H]2CSSC[C@H](NC1=O)C(=O)N[C@@H](Cc1ccc(O)cc1)C(=O)N[C@@H](CCC(=O)O)C(=O)N[C@@H](CCCCN)C(=O)N1CCC[C@@H]1C(=O)N1CCC[C@H]1C(=O)N[C@@H](Cc1ccc(O)cc1)C(=O)N[C@@H](Cc1c[nH]cn1)C(=O)N[C@@H](C)C(=O)N2
B2: cyclo(-Tyr-His-Trp-Cys-Trp-Gly-^DPro-Trp-Thr-Ile-Cys-Tyr-Gln-Lys-^DPro-Pro-) (peptide)
peptide: cyclo(YHWCWG[dP]WTICYQK[dP]P)
modifications: disulfide 4-11
SMILES: CC[C@H](C)[C@@H]1NC(=O)[C@H]([C@@H](C)O)NC(=O)[C@H](Cc2c[nH]c3ccccc23)NC(=O)[C@H]2CCCN2C(=O)CNC(=O)[C@H](Cc2c[nH]c3ccccc23)NC(=O)[C@@H]2CSSC[C@H](NC1=O)C(=O)N[C@@H](Cc1ccc(O)cc1)C(=O)N[C@@H](CCC(N)=O)C(=O)N[C@@H](CCCCN)C(=O)N1CCC[C@@H]1C(=O)N1CCC[C@H]1C(=O)N[C@@H](Cc1ccc(O)cc1)C(=O)N[C@@H](Cc1c[nH]cn1)C(=O)N[C@@H](Cc1c[nH]c3ccccc13)C(=O)N2
B3: cyclo(-Tyr-His-Ala-Cys-Trp-Gly-^DPro-Trp-Thr-Ile-Cys-Tyr-Trp-Lys-^DPro-Pro-) (peptide)
peptide: cyclo(YHACWG[dP]WTICYWK[dP]P)
modifications: disulfide 4-11
SMILES: CC[C@H](C)[C@@H]1NC(=O)[C@H]([C@@H](C)O)NC(=O)[C@H](Cc2c[nH]c3ccccc23)NC(=O)[C@H]2CCCN2C(=O)CNC(=O)[C@H](Cc2c[nH]c3ccccc23)NC(=O)[C@@H]2CSSC[C@H](NC1=O)C(=O)N[C@@H](Cc1ccc(O)cc1)C(=O)N[C@@H](Cc1c[nH]c3ccccc13)C(=O)N[C@@H](CCCCN)C(=O)N1CCC[C@@H]1C(=O)N1CCC[C@H]1C(=O)N[C@@H](Cc1ccc(O)cc1)C(=O)N[C@@H](Cc1c[nH]cn1)C(=O)N[C@@H](C)C(=O)N2
B4: cyclo(-Tyr-His-Ala-Cys-Trp-Gly-^DPro-Trp-Thr-Ile-Cys-Tyr-Gln-Glu-^DPro-Pro-) (peptide)
peptide: cyclo(YHACWG[dP]WTICYQE[dP]P)
modifications: disulfide 4-11
SMILES: CC[C@H](C)[C@@H]1NC(=O)[C@H]([C@@H](C)O)NC(=O)[C@H](Cc2c[nH]c3ccccc23)NC(=O)[C@H]2CCCN2C(=O)CNC(=O)[C@H](Cc2c[nH]c3ccccc23)NC(=O)[C@@H]2CSSC[C@H](NC1=O)C(=O)N[C@@H](Cc1ccc(O)cc1)C(=O)N[C@@H](CCC(N)=O)C(=O)N[C@@H](CCC(=O)O)C(=O)N1CCC[C@@H]1C(=O)N1CCC[C@H]1C(=O)N[C@@H](Cc1ccc(O)cc1)C(=O)N[C@@H](Cc1c[nH]cn1)C(=O)N[C@@H](C)C(=O)N2
B5: cyclo(-Tyr-His-Glu-Cys-His-Gly-^DPro-Trp-Thr-Ile-Cys-Tyr-Gln-Lys-^DPro-Pro-) (peptide)
peptide: cyclo(YHECHG[dP]WTICYQK[dP]P)
modifications: disulfide 4-11
SMILES: CC[C@H](C)[C@@H]1NC(=O)[C@H]([C@@H](C)O)NC(=O)[C@H](Cc2c[nH]c3ccccc23)NC(=O)[C@H]2CCCN2C(=O)CNC(=O)[C@H](Cc2c[nH]cn2)NC(=O)[C@@H]2CSSC[C@H](NC1=O)C(=O)N[C@@H](Cc1ccc(O)cc1)C(=O)N[C@@H](CCC(N)=O)C(=O)N[C@@H](CCCCN)C(=O)N1CCC[C@@H]1C(=O)N1CCC[C@H]1C(=O)N[C@@H](Cc1ccc(O)cc1)C(=O)N[C@@H](Cc1c[nH]cn1)C(=O)N[C@@H](CCC(=O)O)C(=O)N2
B6: cyclo(-Tyr-His-Lys-Cys-Trp-Gly-^DPro-Trp-Thr-Ile-Cys-Tyr-Gln-Lys-^DPro-Pro-) (peptide)
peptide: cyclo(YHKCWG[dP]WTICYQK[dP]P)
modifications: disulfide 4-11
SMILES: CC[C@H](C)[C@@H]1NC(=O)[C@H]([C@@H](C)O)NC(=O)[C@H](Cc2c[nH]c3ccccc23)NC(=O)[C@H]2CCCN2C(=O)CNC(=O)[C@H](Cc2c[nH]c3ccccc23)NC(=O)[C@@H]2CSSC[C@H](NC1=O)C(=O)N[C@@H](Cc1ccc(O)cc1)C(=O)N[C@@H](CCC(N)=O)C(=O)N[C@@H](CCCCN)C(=O)N1CCC[C@@H]1C(=O)N1CCC[C@H]1C(=O)N[C@@H](Cc1ccc(O)cc1)C(=O)N[C@@H](Cc1c[nH]cn1)C(=O)N[C@@H](CCCCN)C(=O)N2
B7: cyclo(-Tyr-His-Ile-Cys-His-Gly-^DPro-Trp-Thr-Ile-Cys-Tyr-Gln-Lys-^DPro-Pro-) (peptide)
peptide: cyclo(YHICHG[dP]WTICYQK[dP]P)
modifications: disulfide 4-11
SMILES: CC[C@H](C)[C@@H]1NC(=O)[C@H](Cc2c[nH]cn2)NC(=O)[C@H](Cc2ccc(O)cc2)NC(=O)[C@@H]2CCCN2C(=O)[C@H]2CCCN2C(=O)[C@H](CCCCN)NC(=O)[C@H](CCC(N)=O)NC(=O)[C@H](Cc2ccc(O)cc2)NC(=O)[C@@H]2CSSC[C@H](NC1=O)C(=O)N[C@@H](Cc1c[nH]cn1)C(=O)NCC(=O)N1CCC[C@@H]1C(=O)N[C@@H](Cc1c[nH]c3ccccc13)C(=O)N[C@@H]([C@@H](C)O)C(=O)N[C@@H]([C@@H](C)CC)C(=O)N2
B8: cyclo(-Glu-His-Lys-Cys-His-Gly-^DPro-Trp-Thr-Ile-Cys-Tyr-Glu-Lys-^DPro-Pro-) (peptide)
peptide: cyclo(EHKCHG[dP]WTICYEK[dP]P)
modifications: disulfide 4-11
SMILES: CC[C@H](C)[C@@H]1NC(=O)[C@H]([C@@H](C)O)NC(=O)[C@H](Cc2c[nH]c3ccccc23)NC(=O)[C@H]2CCCN2C(=O)CNC(=O)[C@H](Cc2c[nH]cn2)NC(=O)[C@@H]2CSSC[C@H](NC1=O)C(=O)N[C@@H](Cc1ccc(O)cc1)C(=O)N[C@@H](CCC(=O)O)C(=O)N[C@@H](CCCCN)C(=O)N1CCC[C@@H]1C(=O)N1CCC[C@H]1C(=O)N[C@@H](CCC(=O)O)C(=O)N[C@@H](Cc1c[nH]cn1)C(=O)N[C@@H](CCCCN)C(=O)N2
B9: cyclo(-Tyr-His-Trp-Cys-His-Gly-^DPro-Trp-Thr-Ile-Cys-Tyr-Gln-Lys-^DPro-Pro-) (peptide)
peptide: cyclo(YHWCHG[dP]WTICYQK[dP]P)
modifications: disulfide 4-11
SMILES: CC[C@H](C)[C@@H]1NC(=O)[C@H]([C@@H](C)O)NC(=O)[C@H](Cc2c[nH]c3ccccc23)NC(=O)[C@H]2CCCN2C(=O)CNC(=O)[C@H](Cc2c[nH]cn2)NC(=O)[C@@H]2CSSC[C@H](NC1=O)C(=O)N[C@@H](Cc1ccc(O)cc1)C(=O)N[C@@H](CCC(N)=O)C(=O)N[C@@H](CCCCN)C(=O)N1CCC[C@@H]1C(=O)N1CCC[C@H]1C(=O)N[C@@H](Cc1ccc(O)cc1)C(=O)N[C@@H](Cc1c[nH]cn1)C(=O)N[C@@H](Cc1c[nH]c3ccccc13)C(=O)N2
B10: cyclo(-Dab-His-Lys-Cys-His-Gly-^DPro-Trp-Thr-Ile-Cys-Tyr-Glu-Lys-^DPro-Glu-) (peptide)
peptide: cyclo([Dab]HKCHG[dP]WTICYEK[dP]E)
modifications: disulfide 4-11
SMILES: CC[C@H](C)[C@@H]1NC(=O)[C@H]([C@@H](C)O)NC(=O)[C@H](Cc2c[nH]c3ccccc23)NC(=O)[C@H]2CCCN2C(=O)CNC(=O)[C@H](Cc2c[nH]cn2)NC(=O)[C@@H]2CSSC[C@H](NC1=O)C(=O)N[C@@H](Cc1ccc(O)cc1)C(=O)N[C@@H](CCC(=O)O)C(=O)N[C@@H](CCCCN)C(=O)N1CCC[C@@H]1C(=O)N[C@@H](CCC(=O)O)C(=O)N[C@@H](CCN)C(=O)N[C@@H](Cc1c[nH]cn1)C(=O)N[C@@H](CCCCN)C(=O)N2
B11: cyclo(-Tyr-His-Thr-Cys-His-Gly-^DPro-Trp-Thr-Ile-Cys-Tyr-Gln-Lys-^DPro-Pro-) (peptide)
peptide: cyclo(YHTCHG[dP]WTICYQK[dP]P)
modifications: disulfide 4-11
SMILES: CC[C@H](C)[C@@H]1NC(=O)[C@H]([C@@H](C)O)NC(=O)[C@H](Cc2c[nH]c3ccccc23)NC(=O)[C@H]2CCCN2C(=O)CNC(=O)[C@H](Cc2c[nH]cn2)NC(=O)[C@@H]2CSSC[C@H](NC1=O)C(=O)N[C@@H](Cc1ccc(O)cc1)C(=O)N[C@@H](CCC(N)=O)C(=O)N[C@@H](CCCCN)C(=O)N1CCC[C@@H]1C(=O)N1CCC[C@H]1C(=O)N[C@@H](Cc1ccc(O)cc1)C(=O)N[C@@H](Cc1c[nH]cn1)C(=O)N[C@@H]([C@@H](C)O)C(=O)N2
B12: cyclo(-Tyr-His-Ala-Cys-His-Gly-^DPro-Trp-Thr-Ile-Cys-Tyr-Trp-Lys-^DPro-Pro-) (peptide)
peptide: cyclo(YHACHG[dP]WTICYWK[dP]P)
modifications: disulfide 4-11
SMILES: CC[C@H](C)[C@@H]1NC(=O)[C@H]([C@@H](C)O)NC(=O)[C@H](Cc2c[nH]c3ccccc23)NC(=O)[C@H]2CCCN2C(=O)CNC(=O)[C@H](Cc2c[nH]cn2)NC(=O)[C@@H]2CSSC[C@H](NC1=O)C(=O)N[C@@H](Cc1ccc(O)cc1)C(=O)N[C@@H](Cc1c[nH]c3ccccc13)C(=O)N[C@@H](CCCCN)C(=O)N1CCC[C@@H]1C(=O)N1CCC[C@H]1C(=O)N[C@@H](Cc1ccc(O)cc1)C(=O)N[C@@H](Cc1c[nH]cn1)C(=O)N[C@@H](C)C(=O)N2
B13: cyclo(-Tyr-His-Ala-Cys-Trp-Gly-^DPro-Trp-Thr-Ile-Cys-Tyr-Gln-Ala-^DPro-Pro-) (peptide)
peptide: cyclo(YHACWG[dP]WTICYQA[dP]P)
modifications: disulfide 4-11
SMILES: CC[C@H](C)[C@@H]1NC(=O)[C@H]([C@@H](C)O)NC(=O)[C@H](Cc2c[nH]c3ccccc23)NC(=O)[C@H]2CCCN2C(=O)CNC(=O)[C@H](Cc2c[nH]c3ccccc23)NC(=O)[C@@H]2CSSC[C@H](NC1=O)C(=O)N[C@@H](Cc1ccc(O)cc1)C(=O)N[C@@H](CCC(N)=O)C(=O)N[C@@H](C)C(=O)N1CCC[C@@H]1C(=O)N1CCC[C@H]1C(=O)N[C@@H](Cc1ccc(O)cc1)C(=O)N[C@@H](Cc1c[nH]cn1)C(=O)N[C@@H](C)C(=O)N2

For the assay, the target named is T1, Formyl-Peptide Receptor 1. The assay can be described thus: cell-based or functional assay.
Consider B1, for which the “β-Arrestin IC50” value was found to be 68 nM. Take B2: the “β-Arrestin IC50” value came to 89 nM.

With B3, the “β-Arrestin IC50” value amounted to 62 nM. The value for B4 was 63 nM.

In the case of B5, the “β-Arrestin IC50” value was 321 nM.

B6: the “β-Arrestin IC50” value was determined as 71 nM. Consider B7, for which the “β-Arrestin IC50” value was 35 nM. The value for B8 was 165 nM; that for B9 was 177 nM; that for B10 was 144 nM. For B11, the “β-Arrestin IC50” value is 178 nM. Consider B12, for which the “β-Arrestin IC50” value was found to be 36 nM. In the case of B13, the “β-Arrestin IC50” value turned out to be 76 nM.

The values above are taken from patent US9957297B2, “Template-fixed peptidomimetics as inhibitors of FPR1” (POLYPHOR AG, priority 2011, dated 2018).
